Article doi:10.1101/2020.11.05.369280 (bioRxiv, 2020)

Target: EIIA^Glc (UniProt P69783 2-169)
Assay: SPR + ELISA

Sequence of EIIA^Glc (P69783 2-169): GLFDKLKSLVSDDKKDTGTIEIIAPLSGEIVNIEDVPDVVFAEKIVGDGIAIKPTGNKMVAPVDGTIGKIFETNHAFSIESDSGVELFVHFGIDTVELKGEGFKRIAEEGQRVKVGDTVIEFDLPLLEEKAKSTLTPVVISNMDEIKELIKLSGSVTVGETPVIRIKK

B1: EIIB^Glc (domain or fragment)
chain: EDATEDAKATGTSEMAPALVAAFGGKENITNLDACITRLRVSVADVSKVDQAGLKKLGAAGVVVAGSGVQAIFGTKSDNLKTEMDEYIRN
- Kd: > 10 µM
